System: target antigen-expressing cell line
Test: Jurkat NFAT-GFP assay, coculture with target cell lines expressing the respective target antigen (summary Table 10A)
Format: cell-based, human
Set-up: key: The signs +/−, +, 2+ etc. after the name of the cell lines indicate the relative degree of positivity on the Jurkat-NFAT-GFP assay as measured by the % GFP positive cells; +: relative degree of positivity on the Jurkat-NFAT-GFP assay as measured by the % GFP positive cells; 2+: relative degree of positivity on the Jurkat-NFAT-GFP assay as measured by the % GFP positive cells
Conditions: relative % GFP positive cells; for NFAT-GFP ASSAY Positive Cell lines: RAJI: SIR-expressing Jurkat-NFAT-GFP cells cocultured with RAJI; for NFAT-GFP ASSAY Positive Cell lines: NALM6: SIR-expressing Jurkat-NFAT-GFP cells cocultured with NALM6
How it was run: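 Readout is % GFP+ cells by FACS, graded +/− to 2+ relative to parental reporter cells. Jurkat-NFAT-GFP cells stably transduced with SIR constructs (puromycin-selected) were mixed with target-antigen-expressing cell lines at roughly 1:2 effector:target and cocultured ~4–18 h.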

Molecule | NFAT-GFP ASSAY Positive Cell lines: RAJI | NFAT-GFP ASSAY Positive Cell lines: NALM6 | NFAT-GFP ASSAY Positive Cell lines: L363 (SIR-expressing Jurkat-NFAT-GFP cells cocultured with L363) | NFAT-GFP ASSAY Positive Cell lines: U266 (SIR-expressing Jurkat-NFAT-GFP cells cocultured with U266)
032216-C04 (protein, Polynucleotide encoding a Synthetic Immune Receptor (SIR)) MALPVTALLLPLALLLHAARPDIVLTQSPATLSLSPGDRATISCRASESVTILGSHLIYWYQQKPGQPPRLLIQLASNVQTGVPARFSGSGSRTDFTLTISSVEPEDFAVYYCLQSRTIPRTFGQGTKLEIKRLEGKPIPNPLLGLDSTGSGEDLKNVFPPEVAVFEPSKAEIAHTQKATLVCLATGFYPDHVELSWWVNGKEVHSGVCTDPQPLKEQPALNDSRYCLSSRLRVSATFWQNPRNHFRCQVQFYGLSENDEWTQDRAKPVTQIVSAEAWGRADCGITSASYHQGVLSATILYEILLGKATLYAVLVSALVLMAMVKRKDSRGRAKRSGSGATNFSLLKQAGDVEENPGPTSMDWIWRILFLVGAATGAHSFEQVQLVQSGPEVKKPGESVKISCKASGYTFRHYSMNWVKQAPGQGLKWMGRINTESGVPIYADDFKGRFSFTVDTSASTAYLEISSLTSEDTAVYFCSNDYLYSLDFWGQGTTLTVSSTREQKLISEEDGSGIQNPDPAVYQLRDSKSSDKSVCLFTDFDSQTNVSQSKDSDVYITDKCVLDMRSMDFKSNSAVAWSNKSDFACANAFNNSIIPEDTFFPSSDVPCDVKLVEKSFETDTNLNFQNLSVIGFRILLLKVAGFNLLMTLRLWSSRAKRSGSGVKQTLNFDLLKLAGDVESNPGPSRGHMTEYKPTVRLATRDDVPRAVRTLAAAFADYPATRHTVDPDRHIERVTELQELFLTRVGLDIGKVWVADDGAAVAVWTTPESVEAGAVFAEIGPRMAELSGSRLAAQQQMEGLLAPHRPKEPAWFLATVGVSPDHQGKGLGSAVVLPGVEAAERAGVPAFLETSAPRNLPFYERLGFTVTADVEVPEGPRTWCMTRKPGA | 2+ | – | – | –
110217-A03 (protein) MALPVTALLLPLALLLHAARPDVVMTQSPSSLSASVGDRVTITCRASQDISKYLNWYQQKPGKAPKLLIYHTSRLHSGVPSRFSGSGSGTDFTLTISSLQPEDFATYYCQQGNTLPYTFGGGTKVEIKLEDLKNVFPPEVAVFCPSEAEISHTQKATLVCLATGFYPDHVELSWWVNGKEVHSGVSTDPQPLKEQPALNDSRYCLSSRLRVSATFWQNPRNHFRCQVQFYGLSENDEWTQDRAKPVTQIVSAEAWGRADCGFTSESYQQGVLSATILYEILLGKATLYAVLVSALVLMAMVKRKDSRGRAKRSGSGATNFSLLKQAGDVEENPGPTSMDWIWRILFLVGAATGAHSFEQVQLQESGPGLVKPSQTLSLTCTVSGVSLPDYGVSWIRQPPGKGLEWIGVIWGSETTYYNSALKSRVLISVDTSKNQVSLKLSSVTAADTAVYYCARHYYYGGSYAMDYWGQGTTVTVSSTRIQNPDPAVYQLRDCKSSDKSVCLFTDFDSQTNVSQSKDSDVYITDKTVLDMRSMDFKSNSAVAWSNKSDFACANAFNNSIIPEDTFFPSPESSCDVKLVEKSFETDTNLNFQNLSVIGFRILLLKVAGFNLLMTLRLWSS | RAJI (+/−), NALM6 | (+/−) | – | –
102116-D01 (protein, Synthetic Immune Receptor (SIR)) MALPVTALLLPLALLLHAARPLEGKPIPNPLLGLDSTGSGEDLKNVFPPEVAVFEPSKAEIAHTQKATLVCLATGFYPDHVELSWWVNGKEVHSGVCTDPQPLKEQPALNDSRYCLSSRLRVSATFWQNPRNHFRCQVQFYGLSENDEWTQDRAKPVTQIVSAEAWGRADCGITSASYHQGVLSATILYEILLGKATLYAVLVSALVLMAMVKRKDSRGRAKRSGSGATNFSLLKQAGDVEENPGPTSTMALPVTALLLPLALLLHAARPQAVLTQPPSASGTPGQRVTISCSGSSSNIGSYTVSWYQQLPGTAPKFLIYSNNQRPSGVPDRFSGSKSGTSASLAISGLQSEDEADYYCAAWDDSLNGYVFGTGTKVTVLGGGGGSGGGGSGGGGSEVQLVQSGAEVKKPGESLKISCKGSGYDFTTYWIGWVRQMPGKGLEWMGIIYPGDSDTRYSPSVRGRVTISADKSINTAYLQWSSLEASDTAMYYCARMWTFSQDGWGQGTLVTVSSTREQKLISEEDGSGIQNPDPAVYQLRDSKSSDKSVCLFTDFDSQTNVSQSKDSDVYITDKCVLDMRSMDFKSNSAVAWSNKSDFACANAFNNSIIPEDTFFPSSDVPCDVKLVEKSFETDTNLNFQNLSVIGFRILLLKVAGFNLLMTLRLWSSRAKRSGSGVKQTLNFDLLKLAGDVESNPGPSRGHMTEYKPTVRLATRDDVPRAVRTLAAAFADYPATRHTVDPDRHIERVTELQELFLTRVGLDIGKVWVADDGAAVAVWTTPESVEAGAVFAEIGPRMAELSGSRLAAQQQMEGLLAPHRPKEPAWFLATVGVSPDHQGKGLGSAVVLPGVEAAERAGVPAFLETSAPRNLPFYERLGFTVTADVEVPEGPRTWCMTRKPGA | – | – | L363 (2+), U266 | (2+)
110217-B04 (protein) MALPVTALLLPLALLLHAARPDVVMTQSPSSLSASVGDRVTITCRASQDISKYLNWYQQKPGKAPKLLIYHTSRLHSGVPSRFSGSGSGTDFTLTISSLQPEDFATYYCQQGNTLPYTFGGGTKVEIKLEDLKNVFPPEVAVFEPSEAEISHTQKATLVCLATGFYPDHVELSWWVNGKEVHSGVSTCPQPLKEQPALNDSRYCLSSRLRVSATFWQNPRNHFRCQVQFYGLSENDEWTQDRAKPVTQIVSAEAWGRADCGFTSESYQQGVLSATILYEILLGKATLYAVLVSALVLMAMVKRKDSRGRAKRSGSGATNFSLLKQAGDVEENPGPTSMDWIWRILFLVGAATGAHSFEQVQLQESGPGLVKPSQTLSLTCTVSGVSLPDYGVSWIRQPPGKGLEWIGVIWGSETTYYNSALKSRVLISVDTSKNQVSLKLSSVTAADTAVYYCARHYYYGGSYAMDYWGQGTTVTVSSTRIQNPDPAVYQLRDSKSSDKSVCLFTDFDSQTNVSQSKDSDVYICDKTVLDMRSMDFKSNSAVAWSNKSDFACANAFNNSIIPEDTFFPSPESSCDVKLVEKSFETDTNLNFQNLSVIGFRILLLKVAGFNLLMTLRLWSS | RAJI (+/−), NALM6 | (+/−) | – | –
110217-C03 (protein) MALPVTALLLPLALLLHAARPDVVMTQSPSSLSASVGDRVTITCRASQDISKYLNWYQQKPGKAPKLLIYHTSRLHSGVPSRFSGSGSGTDFTLTISSLQPEDFATYYCQQGNTLPYTFGGGTKVEIKLEDLKNVFPPEVAVFEPSEAEISHTQKATLVCLATGFYPDHVELSWWVNGKEVHSGVSTDPQPLKEQPALNDSRYCLCSRLRVSATFWQNPRNHFRCQVQFYGLSENDEWTQDRAKPVTQIVSAEAWGRADCGFTSESYQQGVLSATILYEILLGKATLYAVLVSALVLMAMVKRKDSRGRAKRSGSGATNFSLLKQAGDVEENPGPTSMDWIWRILFLVGAATGAHSFEQVQLQESGPGLVKPSQTLSLTCTVSGVSLPDYGVSWIRQPPGKGLEWIGVIWGSETTYYNSALKSRVLISVDTSKNQVSLKLSSVTAADTAVYYCARHYYYGGSYAMDYWGQGTTVTVSSTRIQNPDPAVYQLRDSKSSDKSVCLFTDFDSQTNVSQSKDSDVYICDKTVLDMRSMDFKSNSAVAWSNKSDFACANAFNNSIIPEDTFFPSPESSCDVKLVEKSFETDTNLNFQNLSVIGFRILLLKVAGFNLLMTLRLWSS | RAJI (+/−), NALM6 | (+/−) | – | –
110217-D01 (protein) MALPVTALLLPLALLLHAARPDVVMTQSPSSLSASVGDRVTITCRASQDISKYLNWYQQKPGKAPKLLIYHTSRLHSGVPSRFSGSGSGTDFTLTISSLQPEDFATYYCQQGNTLPYTFGGGTKVEIKLEDLKNVFPPEVAVFEPCEAEISHTQKATLVCLATGFYPDHVELSWWVNGKEVHSGVSTDPQPLKEQPALNDSRYCLSSRLRVSATFWQNPRNHFRCQVQFYGLSENDEWTQDRAKPVTQIVSAEAWGRADCGFTSESYQQGVLSATILYEILLGKATLYAVLVSALVLMAMVKRKDSRGRAKRSGSGATNFSLLKQAGDVEENPGPTSMDWIWRILFLVGAATGAHSFEQVQLQESGPGLVKPSQTLSLTCTVSGVSLPDYGVSWIRQPPGKGLEWIGVIWGSETTYYNSALKSRVLISVDTSKNQVSLKLSSVTAADTAVYYCARHYYYGGSYAMDYWGQGTTVTVSSTRIQNPDPAVCQLRDSKSSDKSVCLFTDFDSQTNVSQSKDSDVYITDKTVLDMRSMDFKSNSAVAWSNKSDFACANAFNNSIIPEDTFFPSPESSCDVKLVEKSFETDTNLNFQNLSVIGFRILLLKVAGFNLLMTLRLWSS | RAJI (+/−), NALM6 | (+/−) | – | –
092517-F01 (protein) MALPVTALLLPLALLLHAARPLEGKPIPNPLLGLDSTGSGEDLKNVFPPEVAVFEPSKAEIAHTQKATLVCLATGFYPDHVELSWWVNGKEVHSGVCTDPQPLKEQPALNDSRYCLSSRLRVSATFWQNPRNHFRCQVQFYGLSENDEWTQDRAKPVTQIVSAEAWGRADCGITSASYHQGVLSATILYEILLGKATLYAVLVSALVLMAMVKRKDSRGRAKRSGSGATNFSLLKQAGDVEENPGPTSMALPVTALLLPLALLLHAARPDVVMTQSPSSLSASVGDRVTITCRASQDISKYLNWYQQKPGKAPKLLIYHTSRLHSGVPSRFSGSGSGTDFTLTISSLQPEDFATYYCQQGNTLPYTFGGGTKVEIKGGGGSGGGGSGGGGSQVQLQESGPGLVKPSQTLSLTCTVSGVSLPDYGVSWIRQPPGKGLEWIGVIWGSETTYYNSALKSRVLISVDTSKNQVSLKLSSVTAADTAVYYCARHYYYGGSYAMDYWGQGTTVTVSSTREQKLISEEDGSGIQNPDPAVYQLRDSKSSDKSVCLFTDFDSQTNVSQSKDSDVYITDKCVLDMRSMDFKSNSAVAWSNKSDFACANAFNNSIIPEDTFFPSSDVPCDVKLVEKSFETDTNLNFQNLSVIGFRILLLKVAGFNLLMTLRLWSSRAKRSGSGVKQTLNFDLLKLAGDVESNPGPSRGHMTEYKPTVRLATRDDVPRAVRTLAAAFADYPATRHTVDPDRHIERVTELQELFLTRVGLDIGKVWVADDGAAVAVWTTPESVEAGAVFAEIGPRMAELSGSRLAAQQQMEGLLAPHRPKEPAWFLATVGVSPDHQGKGLGSAVVLPGVEAAERAGVPAFLETSAPRNLPFYERLGFTVTADVEVPEGPRTWCMTRKPGA | RAJI (+), NALM6 (+) | RAJI (+), NALM6 (+) | – | –

From US12269859B2, “Synthetic immune receptors and methods of use thereof” (Angeles Therapeutics, Inc., priority 2016, dated 2025)
